Assay [1] concerns the target T1, PCSK9-BP15-His6 (human, UniProt Q8NBP7 31-692, biotin on the BP15 biotin receiving peptide).
T1 construct: It holds a signal peptide (underlined in print); also called WT PCSK9; bio-WT-PCSK9
Description: ELISA, bio-WT-PCSK9 captured on streptavidin plate. Here is the method:
The binding ability of anti-PCSK9 antibodies of the present invention to PCSK9 was detected by measuring the amount of antibodies binding to wild-type PCSK9 protein (WT PCSK9, SEQ ID NO: 5) fixed on the ELISA plate.
Streptavidin (sigma, CAT#S4762) was diluted to 2 μg/ml with PBS and coated into 96-well ELISA plate, at 4° C. overnight. The plate was washed and then blocked with Tris buffer (including 0.9 mM CaCl2, 0.05% Tween 20 and 5% skim milk) at 37° C. for 2 hours. Then the plate was washed again and 100 μl/well of the biotin-labeled PCSK9, produced in-house, (bio-WT-PCSK9, diluted with Tris buffer containing 0.9 mM CaCl2, 0.05% Tween 20 and 1% skim milk), was added and incubated at 37° C. for 1 hour. After the wash step, different concentrations of diluted PCSK9 antibody samples was added to the plate and incubated at 37° C. for 1 hour. Then the plate was washed again and HRP-goat-anti-human (H+L) antibody (Jackson ImmunoResearch, CAT#109-035-088) was added and incubated at 37° C. for 1 hour. Then the plate was washed again and tetramethylbenzidine solution was added for development. Finally, the stop solution was added and the OD450 value was measured on the Microplate reader, and then EC50 was calculated.
On the technique in general: ELISA stands for enzyme-linked immunosorbent assay.

In assay [2] the target is T1, PCSK9-BP15-His6. The assay is described as follows: blocking ELISA, LDLR-FC (SEQ ID NO: 8) coated, bio-WT-PCSK9 plus antibody. Here is the method: The blocking abilities of PCSK9 antibodies of the present invention to the binding of LDLR-FC (produced in-house, sequence is shown in SEQ ID NO: 8) to PCSK9 (SEQ ID NO: 5) were detected by measuring the amount of PCSK9 binding to LDLR in the presence of the antibodies.
LDLR-FC was diluted to 5 μg/ml with phosphate buffer and coated in the 96-well ELISA plate, then incubated at 4° C. overnight. The plate was washed and then blocked with Tris buffer (including 0.9 mM CaCl₂, 0.05% Tween 20 and 5% skim milk) at 37° C. for 2 hours. Then the plate was washed again and 100 μl/well of the mixture of biotin-labeled PCSK9 (bio-WT-PCSK9, diluted to the final concentration of 2 μg/ml with Tris buffer containing 0.9 mM CaCl₂, 0.05% Tween 20 and 1% skim milk) and antibody samples (diluted with Tris buffer containing 0.9 mM CaCl₂, 0.05% Tween 20 and 1% skim milk) were added and incubated at 37° C. for 1 hour. Then the plate was washed again and horseradish peroxidase-streptavidin (Sigma, CAT#52438) was added and incubated at 37° C. for 1 hour. Then the plate was washed and tetramethylbenzidine solution was added for development. Finally, the stop solution was added and the OD450 was measured on the Microplate reader, then IC50 was calculated.

The target in assay [3] is T2, PCSK9-His6 (human, UniProt Q8NBP7 31-692, limits assumed).
T2 construct: also called human PCSK9 with His tag; huPCSK9
The assay is described as follows: BIAcore, antibody captured by human Fab capture molecule on CM5 chip, PCSK9-His6 in flow. The text has this: According to the method described in the Human Fab Capture Kit (Cat. #28-9583-25, GE), the human Fab capture molecule was covalently linked to the CM5 biochip (Cat. # BR-1000-12, GE) so that the antibodies to be tested were affinity captured. Then, human PCSK9 antigen (human PCSK9 with His tag: PCSK9-His6, SEQ ID NO: 1) flowed through the surface of the biochip, and the reaction signal was detected in real time using a Biacore instrument to obtain the association and dissociation curves. Finally, the affinity values were obtained by fitting and are shown at table 9 below. After each cycle of dissociation was finished in the experiment, the biochip was washed and regenerated with regeneration solution in Human Fab Capture kit (GE).

Assay [4] has as its target T3, PCSK9-D374Y-BP15-His6 (human, UniProt Q8NBP7 31-692, biotin on the BP15 biotin receiving peptide).
T3 construct: also called PCSK9-Y; mutant PCSK9
Description: ELISA, bio-PCSK9-Y captured on streptavidin plate. The protocol:
The binding ability of anti-PCSK9 antibodies of the present invention to PCSK9-Y was detected by measuring the amount of antibodies binding to PCSK9-Y (mutant PCSK9, SEQ ID NO: 6) fixed on the ELISA plate.
Streptavidin (sigma, CAT#54762) was diluted to 2 μg/ml with PBS and coated into 96-well ELISA plate at 4° C. overnight. The plate was washed and then blocked with Tris buffer (including 0.9 mM CaCl₂, 0.05% Tween 20 and 5% skim milk) at 37° C. for 2 hours. Then the plate was washed again and 100 μl/well of the biotin-labeled PCSK9-Y, produced in-house, (bio-PCSK9-Y, diluted with Tris buffer containing 0.9 mM CaCl₂, 0.05% Tween 20 and 1% skim milk) was added and incubated at 37° C. for 1 hour. After the wash step, different concentrations of diluted PCSK9 antibody samples were added to the plate and incubated at 37° C. for 1 hour. Then the plate was washed again and HRP-goat-anti-human (H+L) antibody (Jackson ImmunoResearch, CAT#109-035-088) was added and incubated at 37° C. for 1 hour. Then the plate was washed again and tetramethylbenzidine solution was added for development. Finally, the stop solution was added and the OD450 value was measured on the Microplate reader, and then EC50 was calculated.
The results of ELISA test for the binding ability of chimeric antibodies and back-mutated antibodies of the present invention to mutant PCSK9 are shown in table 6.

Assay [5] has as its target T3, PCSK9-D374Y-BP15-His6. The assay is described as follows: blocking ELISA, LDLR-FC (SEQ ID NO: 8) coated, bio-PCSK9-Y plus antibody. Here is the method: The blocking abilities of anti-PCSK9 antibodies to the binding of LDLR-FC (SEQ ID NO: 8) to PCSK9-Y (mutant PCSK9, SEQ ID NO: 6) were detected by measuring the amount of PCSK9-Y binding to LDLR in the presence of the antibodies.
LDLR-FC was diluted to 2 μg/ml with phosphate buffer and coated in the 96-well ELISA plate (Costar, CAT#3590), then incubated at 4° C. overnight. The plate was washed and then blocked with Tris buffer (including 0.9 mM CaCl₂, 0.05% Tween 20 and 5% skim milk) at 37° C. for 2 hours. Then the plate was washed again and 100 μl/well of the mixture of biotin-labeled PCSK9-Y (bio-PCSK9-Y, diluted to final concentration of […] with Tris buffer containing 0.9 mM CaCl₂, 0.05% Tween 20 and 1% skim milk) and antibody samples (diluted with Tris buffer containing 0.9 mM CaCl₂, 0.05% Tween 20 and 1% skim milk) were added and incubated at 37° C. for 1 hour. Then the plate was washed again and horseradish peroxidase-streptavidin (sigma, CAT#S2438) was added and incubated at 37° C. for 1 hour. Then the plate was washed and tetramethylbenzidine solution was added for development. Finally, the stop solution was added and the OD450 value was measured on the Microplate reader, then IC50 was calculated.
The results of blocking test for the blocking effects of the chimeric antibodies and back-mutated antibodies of the present invention on the binding of LDLR-FC/PCSK9-Y are shown in table 7.

The EC50 is the concentration that produces a half-maximal response. Low values mean higher potency in that assay, high ones lower potency in that assay. By IC50 is commonly meant the concentration that inhibits the measured activity by half. In general, Kd refers to the free concentration of one partner at which half of the binding sites on the other are occupied at equilibrium, for simple one-to-one binding.

B1: h001-4-WT (antibody)
heavy: not shown
light: DIVMSQSPSSLSASVGDRVTITCKSSQSLLNSRTRKNFLAWYQQKPGKSPKLLIYWASTRESGVPDRFSGSGSGTDFTLTISSLQPEDFATYYCKQSFNLFTFGQGTKLEIKRTVAAPSVFIFPPSDEQLKSGTASVVCLLNNFYPREAKVQWKVDNALQSGNSQESVTEQDSKDSTYSLSSTLTLSKADYEKHKVYACEVTHQGLSSPVTKSFNRGEC
notes: both labels are treated as one molecule; also called H001-4 IgG1 format; h001_VH.1 + h001_VL.1C
In the case of B1, the concentration giving a half-maximal response (EC50) was 0.012 µg/mL in assay [1] and 0.0179 µg/mL in assay [4]. In addition, the IC50 was 0.76 µg/mL in assay [2] and 0.53 µg/mL in assay [5]. This molecule yielded a Kd in assay [3] of 0.288 nM.

B2: h001-4-YTE (antibody, human IgG1, kappa)
heavy: QVQLVQSGAEVKKPGASVKVSCKASGYTFTDYWMHWVRQAPGQGLEWMGYINPSSGFTKYHQNFKDRVTMTRDTSISTAYMELSRLRSDDTAVYYCARQYDYDEDWYFDVWGQGTTVTVSSASTKGPSVFPLAPSSKSTSGGTAALGCLVKDYFPEPVTVSWNSGALTSGVHTFPAVLQSSGLYSLSSVVTVPSSSLGTQTYICNVNHKPSNTKVDKKVEPKSCDKTHTCPPCPAPELLGGPSVFLFPPKPKDTLYITREPEVTCVVVDVSHEDPEVKFNWYVDGVEVHNAKTKPREEQYNSTYRVVSVLTVLHQDWLNGKEYKCKVSNKALPAPIEKTISKAKGQPREPQVYTLPPSRDELTKNQVSLTCLVKGFYPSDIAVEWESNGQPENNYKTTPPVLDSDGSFFLYSKLTVDKSRWQQGNVFSCSVMHEALHNHYTQKSLSLSPGK
light: DIVMSQSPSSLSASVGDRVTITCKSSQSLLNSRTRKNFLAWYQQKPGKSPKLLIYWASTRESGVPDRFSGSGSGTDFTLTISSLQPEDFATYYCKQSFNLFTFGQGTKLEIKRTVAAPSVFIFPPSDEQLKSGTASVVCLLNNFYPREAKVQWKVDNALQSGNSQESVTEQDSKDSTYSLSSTLTLSKADYEKHKVYACEVTHQGLSSPVTKSFNRGEC
notes: human kappa light chain; also called h001-4-IgG1-YTE
As for B2, the Kd in assay [3] was determined as 0.491 nM.

These data come from US20190016825A1 (JIANGSU HENGRUI MEDICINE, published 2019).
